The assay addresses mutant p53 protein. Nature of the assay: method not stated.

As a reminder, the Kd is the free concentration of one partner at which half of the binding sites on the other are occupied at equilibrium, for simple one-to-one binding. A high value points to lower affinity.

B1: ME1 single-chain antibody (scFv ME1) (scFv)
scFv: QVKLQQSGAELAKPGASVKMSCKTSGYTFTSYWMNWVKQRPGQGLEWIGYINPTTGYTKYNQKFKDKATLTADKSSSTAYMQLSSLTNVDSAVYYCTTGYSYFDYWGQGTTVTVSSGGGGSGGGGSGGGGSDIELTQSPAIMSASPGEKVTITCSASSSVNYMHWFQQKPGTSPKLWISSTSNLASGVPARFSGSGSGTSYSLTISRMEAEDAATYYCQQRSSYPYTFGGGTKLQIKRAAAGAPVPYPDPLEPRAA
For B1, the dissociation constant (Kd) came out at 100 nM.

Values taken from patent US20030022244A1.
